Source: paper PMC5240998 (2017)

Tests used:
[1] = target: T1, GI.7 norovirus virus-like particles (norovirus GI.7 (strain )); assay: SPR; VLPs captured by mAb 3912
[2] = target: T2, GI.1 norovirus (Norwalk virus) virus-like particles (Norwalk virus (norovirus GI.1), UniProt Q83884 1-530); assay: SPR; VLPs captured by mAb 3912
T2 chain: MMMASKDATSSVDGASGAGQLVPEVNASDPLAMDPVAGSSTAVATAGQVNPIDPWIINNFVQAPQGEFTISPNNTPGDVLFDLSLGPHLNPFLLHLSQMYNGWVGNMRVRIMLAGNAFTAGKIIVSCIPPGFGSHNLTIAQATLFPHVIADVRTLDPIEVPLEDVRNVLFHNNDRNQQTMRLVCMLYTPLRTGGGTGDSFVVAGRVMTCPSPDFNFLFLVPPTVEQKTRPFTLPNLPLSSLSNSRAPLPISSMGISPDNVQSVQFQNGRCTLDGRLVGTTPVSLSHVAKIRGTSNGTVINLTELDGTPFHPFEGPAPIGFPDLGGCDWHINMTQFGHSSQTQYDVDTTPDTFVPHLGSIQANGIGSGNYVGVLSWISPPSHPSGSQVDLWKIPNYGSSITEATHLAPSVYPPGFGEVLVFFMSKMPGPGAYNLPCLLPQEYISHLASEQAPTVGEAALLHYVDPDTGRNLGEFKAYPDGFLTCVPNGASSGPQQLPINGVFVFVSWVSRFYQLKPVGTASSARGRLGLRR

[3] = target: T1, GI.7 norovirus virus-like particles; assay: SPR; kinetic fit; VLPs captured by mAb 3912
[4] = target: T2, GI.1 norovirus (Norwalk virus) …; assay: SPR; kinetic fit; VLPs captured by mAb 3912

B1: Purified NJT-R3-A3 scFv soluble protein (scFv, V domains shown)
VH: EVQLLESGGGLVQPGGSLRLSCAASGFTFSSYAMSWVRQAPGKGLEWVSSIPRPGLHTSYADSVKGRFTISRDNSKNTLYLQMNSLRAEDTAVYYCAKHLRTFDYWGQGTLVTVSS
VL: DIQMTQSPSSLSASVGDRVTITCRASQSISSYLNWYQQKPGKAPKLLIYGASRLQSGVPSRFSGSGSGTDFTLTISSLQPEDFATYYCQQLPAVPITFGQGTKVEIK
- koff [1]: 0.00224 s⁻¹
- koff [2]: 0.00149 s⁻¹
- Ka [3]: 2.02e+07 M⁻¹
- Ka [4]: 3.69e+07 M⁻¹
